Bridge positions count the residues as written; N and C are the ends. Square brackets hold non-standard residues; d marks the D form. Ends that are not written are not given here. Oic = O=C(O)[C@@H]1C[C@@H]2CCCC[C@@H]2N1; tBuAla = CC(C)(C)C[C@H](N)C(=O)O; Chg = N[C@H](C(=O)O)C1CCCCC1; Pen = CC(C)(S)[C@H](N)C(=O)O; 3Amb = NCc1cccc(C(=O)O)c1; NMeC = CN[C@@H](CS)C(=O)O; Nva = CCC[C@H](N)C(=O)O; Ac4c = NC1(C(=O)O)CCC1; PEG2 = NCCOCCOCCC(=O)O; Sar = CNCC(=O)O

First the molecules themselves.
T1: Recombinant human MASP1 enzyme (fragment corresponding to amino acids 297-699, C-terminal His Tag) (human, UniProt P48740 297-699)
T1 sequence: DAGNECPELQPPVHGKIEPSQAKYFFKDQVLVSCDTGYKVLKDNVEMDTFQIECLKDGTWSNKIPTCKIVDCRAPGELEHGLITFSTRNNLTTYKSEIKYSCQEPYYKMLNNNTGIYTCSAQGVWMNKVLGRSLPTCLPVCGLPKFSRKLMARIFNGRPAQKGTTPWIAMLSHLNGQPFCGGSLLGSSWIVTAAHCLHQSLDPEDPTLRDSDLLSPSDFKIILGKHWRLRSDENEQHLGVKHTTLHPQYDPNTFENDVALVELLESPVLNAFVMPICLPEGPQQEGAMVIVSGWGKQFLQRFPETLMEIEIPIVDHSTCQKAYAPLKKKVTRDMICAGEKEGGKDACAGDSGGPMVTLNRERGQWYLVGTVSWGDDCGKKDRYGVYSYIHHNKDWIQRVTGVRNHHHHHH

B1: (ACBA)-IC+SRS-((tBu)A)-PPI-(Pen)+I-NH2 (peptide)
peptide: [Ac4c]ICSRS[tBuAla]PPI[Pen]I-NH2
modifications: disulfide 3-11; N-terminus assumed
SMILES: CC[C@H](C)[C@H](NC(=O)[C@H]1NC(=O)[C@H]([C@@H](C)CC)NC(=O)[C@@H]2CCCN2C(=O)[C@@H]2CCCN2C(=O)[C@H](CC(C)(C)C)NC(=O)[C@H](CO)NC(=O)[C@H](CCCNC(=N)N)NC(=O)[C@H](CO)NC(=O)[C@@H](NC(=O)[C@@H](NC(=O)C2(N)CCC2)[C@@H](C)CC)CSSC1(C)C)C(N)=O
B2: AIC+SRSLPP-(Chg)-(Pen)+IPD-NH2 (peptide)
peptide: AICSRSLPP[Chg][Pen]IPD-NH2
modifications: disulfide 3-11; N-terminus assumed
SMILES: CC[C@H](C)[C@H](NC(=O)[C@H](C)N)C(=O)N[C@H]1CSSC(C)(C)[C@@H](C(=O)N[C@H](C(=O)N2CCC[C@H]2C(=O)N[C@@H](CC(=O)O)C(N)=O)[C@@H](C)CC)NC(=O)[C@H](C2CCCCC2)NC(=O)[C@@H]2CCCN2C(=O)[C@@H]2CCCN2C(=O)[C@H](CC(C)C)NC(=O)[C@H](CO)NC(=O)[C@H](CCCNC(=N)N)NC(=O)[C@H](CO)NC1=O
B3: aIC+SRSLP-(Oic)-I-(Pen)+IPQ-NH2 (peptide)
peptide: [dA]ICSRSLP[Oic]I[Pen]IPQ-NH2
modifications: disulfide 3-11; N-terminus assumed
SMILES: CC[C@H](C)[C@H](NC(=O)[C@@H](C)N)C(=O)N[C@H]1CSSC(C)(C)[C@@H](C(=O)N[C@H](C(=O)N2CCC[C@H]2C(=O)N[C@@H](CCC(N)=O)C(N)=O)[C@@H](C)CC)NC(=O)[C@H]([C@@H](C)CC)NC(=O)[C@@H]2C[C@@H]3CCCC[C@@H]3N2C(=O)[C@@H]2CCCN2C(=O)[C@H](CC(C)C)NC(=O)[C@H](CO)NC(=O)[C@H](CCCNC(=N)N)NC(=O)[C@H](CO)NC1=O
B4: AIC+SRS-((tBu)A)-P-(Oic)-I-((N-Me)C)+I-NH2 (peptide)
peptide: AICSRS[tBuAla]P[Oic]I[NMeC]I-NH2
modifications: disulfide 3-11; N-terminus assumed
SMILES: CC[C@H](C)[C@H](NC(=O)[C@@H]1CSSC[C@H](NC(=O)[C@@H](NC(=O)[C@H](C)N)[C@@H](C)CC)C(=O)N[C@@H](CO)C(=O)N[C@@H](CCCNC(=N)N)C(=O)N[C@@H](CO)C(=O)N[C@@H](CC(C)(C)C)C(=O)N2CCC[C@H]2C(=O)N2[C@@H](C[C@@H]3CCCC[C@@H]32)C(=O)N[C@@H]([C@@H](C)CC)C(=O)N1C)C(N)=O
B5: ((N-Me)G)-IC+SRSLP-(Oic)-I-(Pen)+IPQ-OH (peptide)
peptide: [Sar]ICSRSLP[Oic]I[Pen]IPQ-OH
modifications: disulfide 3-11; N-terminus assumed
SMILES: CC[C@H](C)[C@H](NC(=O)CNC)C(=O)N[C@H]1CSSC(C)(C)[C@@H](C(=O)N[C@H](C(=O)N2CCC[C@H]2C(=O)N[C@@H](CCC(N)=O)C(=O)O)[C@@H](C)CC)NC(=O)[C@H]([C@@H](C)CC)NC(=O)[C@@H]2C[C@@H]3CCCC[C@@H]3N2C(=O)[C@@H]2CCCN2C(=O)[C@H](CC(C)C)NC(=O)[C@H](CO)NC(=O)[C@H](CCCNC(=N)N)NC(=O)[C@H](CO)NC1=O
B6: ((N-Me)G)-IC+SRS-((tBu)A)-PPI-(Pen)+IP-(PEG1(10 atoms))-NH2 (peptide)
peptide: [Sar]ICSRS[tBuAla]PPI[Pen]IP[PEG2]-NH2
modifications: disulfide 3-11; N-terminus assumed
SMILES: CC[C@H](C)[C@H](NC(=O)CNC)C(=O)N[C@H]1CSSC(C)(C)[C@@H](C(=O)N[C@H](C(=O)N2CCC[C@H]2C(=O)NCCOCCOCCC(N)=O)[C@@H](C)CC)NC(=O)[C@H]([C@@H](C)CC)NC(=O)[C@@H]2CCCN2C(=O)[C@@H]2CCCN2C(=O)[C@H](CC(C)(C)C)NC(=O)[C@H](CO)NC(=O)[C@H](CCCNC(=N)N)NC(=O)[C@H](CO)NC1=O
B7: (3-(Aminomethyl)benzoic acid)-IC+SRS-((tBu)A)-PPI-(Pen)+IP-NH2 (peptide)
peptide: [3Amb]ICSRS[tBuAla]PPI[Pen]IP-NH2
modifications: disulfide 3-11; N-terminus assumed
SMILES: CC[C@H](C)[C@H](NC(=O)c1cccc(CN)c1)C(=O)N[C@H]1CSSC(C)(C)[C@@H](C(=O)N[C@H](C(=O)N2CCC[C@H]2C(N)=O)[C@@H](C)CC)NC(=O)[C@H]([C@@H](C)CC)NC(=O)[C@@H]2CCCN2C(=O)[C@@H]2CCCN2C(=O)[C@H](CC(C)(C)C)NC(=O)[C@H](CO)NC(=O)[C@H](CCCNC(=N)N)NC(=O)[C@H](CO)NC1=O
B8: ((N-Me)G)-IC+SRSLP-(Oic)-I-(Pen)+IPQ-NH2 (peptide)
peptide: [Sar]ICSRSLP[Oic]I[Pen]IPQ-NH2
modifications: disulfide 3-11; N-terminus assumed
SMILES: CC[C@H](C)[C@H](NC(=O)CNC)C(=O)N[C@H]1CSSC(C)(C)[C@@H](C(=O)N[C@H](C(=O)N2CCC[C@H]2C(=O)N[C@@H](CCC(N)=O)C(N)=O)[C@@H](C)CC)NC(=O)[C@H]([C@@H](C)CC)NC(=O)[C@@H]2C[C@@H]3CCCC[C@@H]3N2C(=O)[C@@H]2CCCN2C(=O)[C@H](CC(C)C)NC(=O)[C@H](CO)NC(=O)[C@H](CCCNC(=N)N)NC(=O)[C@H](CO)NC1=O
B9: A-(Nva)-C+SRS-((tBu)A)-PPI-(Pen)+IPD-NH2 (peptide)
peptide: A[Nva]CSRS[tBuAla]PPI[Pen]IPD-NH2
modifications: disulfide 3-11; N-terminus assumed
SMILES: CCC[C@H](NC(=O)[C@H](C)N)C(=O)N[C@H]1CSSC(C)(C)[C@@H](C(=O)N[C@H](C(=O)N2CCC[C@H]2C(=O)N[C@@H](CC(=O)O)C(N)=O)[C@@H](C)CC)NC(=O)[C@H]([C@@H](C)CC)NC(=O)[C@@H]2CCCN2C(=O)[C@@H]2CCCN2C(=O)[C@H](CC(C)(C)C)NC(=O)[C@H](CO)NC(=O)[C@H](CCCNC(=N)N)NC(=O)[C@H](CO)NC1=O
B10: aIC+SRSLP-(Oic)-I-(Pen)+IPE-OH (peptide)
peptide: [dA]ICSRSLP[Oic]I[Pen]IPE-OH
modifications: disulfide 3-11; N-terminus assumed
SMILES: CC[C@H](C)[C@H](NC(=O)[C@@H](C)N)C(=O)N[C@H]1CSSC(C)(C)[C@@H](C(=O)N[C@H](C(=O)N2CCC[C@H]2C(=O)N[C@@H](CCC(=O)O)C(=O)O)[C@@H](C)CC)NC(=O)[C@H]([C@@H](C)CC)NC(=O)[C@@H]2C[C@@H]3CCCC[C@@H]3N2C(=O)[C@@H]2CCCN2C(=O)[C@H](CC(C)C)NC(=O)[C@H](CO)NC(=O)[C@H](CCCNC(=N)N)NC(=O)[C@H](CO)NC1=O

Chain of Recombinant human MASP2 enzyme (fragment corresponding to amino acids 297-686, C-terminal His Tag) (O00187 other isoform, or with tags, fused parts or gaps limits assumed): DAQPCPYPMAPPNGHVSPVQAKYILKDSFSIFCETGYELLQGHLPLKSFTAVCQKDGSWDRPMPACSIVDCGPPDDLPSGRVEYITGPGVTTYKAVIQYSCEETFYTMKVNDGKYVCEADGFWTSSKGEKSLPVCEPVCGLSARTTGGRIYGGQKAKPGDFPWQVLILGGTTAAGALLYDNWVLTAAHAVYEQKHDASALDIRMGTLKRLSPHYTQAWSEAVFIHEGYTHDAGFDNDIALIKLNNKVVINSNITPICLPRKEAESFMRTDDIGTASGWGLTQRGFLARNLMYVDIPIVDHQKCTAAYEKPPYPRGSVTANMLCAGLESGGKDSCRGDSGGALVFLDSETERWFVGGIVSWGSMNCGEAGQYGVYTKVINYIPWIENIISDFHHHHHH

One assay deals with T1, Recombinant human MASP1 enzyme …. Description: cell-based or functional assay.
In the case of B1, the “human MASP1 IC50” value amounted to 0.0057 µM.
For the molecule B2, the “human MASP1 IC50” value is 0.0057 µM.
With B3, the “human MASP1 IC50” value came out at 0.0053 µM.
Regarding B4, the “human MASP1 IC50” value came out at 0.0052 µM.
The same measure, in the same setting: with B5 the figure was 0.0054 µM.
On to B6, for which the “human MASP1 IC50” value amounted to 0.0057 µM.
As for B7, the “human MASP1 IC50” value was determined as 0.0054 µM.
The same measure, in the same setting: with B8 the figure was 0.0052 µM.
Turning to B9, the “human MASP1 IC50” value was 0.0052 µM.
Same read-out and setting: with B10 the figure was 0.0053 µM.

Another assay addresses Recombinant human MASP2 enzyme (fragment corresponding to amino acids 297-686, C-terminal His Tag) (human, UniProt O00187 297-686). The assay can be described thus: cell-based or functional assay.
Take B1: the “human MASP2 IC50” value was found to be 0.015 µM.
Take B2: the “human MASP2 IC50” value stood at 0.044 µM.
As for B3, the “human MASP2 IC50” value is 0.13 µM.
Still for that read-out and setting: with B4 the figure was 0.25 µM; with B5, 0.17 µM.
Turning to B6, the “human MASP2 IC50” value stood at 0.074 µM.
Still for that read-out and setting: with B7 the figure was 0.016 µM.
With B8, the “human MASP2 IC50” value turned out to be 0.19 µM.
Turning to B9, the “human MASP2 IC50” value came to 0.019 µM.
On the same count and under the same terms, with B10 the figure was 0.1 µM.
